125 sequences from the supplement of paper PMC9112550, “Optimization of the antimicrobial peptide Bac7 by deep mutational scanning” (BMC Biology, 2022) can be followed below.

This data set concerns Escherichia coli TOP10. Nature of the data set: shrunken log2 fold change of peptide-encoding DNA abundance (4.5 h post-induction vs induction); higher = less antimicrobial activity (less host growth inhibition). To be noted: time post-induction: 4.5 h; library: site-saturation at positions 5, 18, 19, 20.
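Also: peptides expressed intracellularly from a pBAD plasmid library in pooled LB shake-flask culture, induced with 0.3% L-arabinose, DNA abundance read by NGS, three biological replicates, DESeq2 with apeglm shrinkage.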

Regarding RRIRLRPPRLPRPRPRPSFSPRP, the “shrunken log2 fold change” value was -0.365.

Consider RRIRMRPPRLPRPRPRPCFYPRP, for which the “shrunken log2 fold change” value was -0.16.

As to RRIRPRPPRLPRPRPRPTMFPRP, the “shrunken log2 fold change” value was -0.164.

As to RRIRKRPPRLPRPRPRPSQGPRP, the “shrunken log2 fold change” value came out at 0.0922.

For the sequence RRIRRRPPRLPRPRPRPFYNPRP, the “shrunken log2 fold change” value was -0.139.

On to RRIRFRPPRLPRPRPRPAWQPRP, for which the “shrunken log2 fold change” value stood at 2.26.

In the case of RRIRERPPRLPRPRPRPWWGPRP, the “shrunken log2 fold change” value was -0.081.

As for RRIRPRPPRLPRPRPRPGRRPRP, the “shrunken log2 fold change” value amounted to 0.123.

Regarding RRIRDRPPRLPRPRPRPQLYPRP, the “shrunken log2 fold change” value is -0.162.

On to RRIRDRPPRLPRPRPRPEEDPRP, for which the “shrunken log2 fold change” value came out at 0.012.

Turning to RRIRMRPPRLPRPRPRPLDVPRP, the “shrunken log2 fold change” value was 0.287.

For RRIRVRPPRLPRPRPRPQRIPRP, the “shrunken log2 fold change” value was -0.544.

For RRIRQRPPRLPRPRPRPQPIPRP, the “shrunken log2 fold change” value is 0.136.

With RRIRFRPPRLPRPRPRPWWLPRP, the “shrunken log2 fold change” value was -0.0533.

Turning to RRIRKRPPRLPRPRPRPWVDPRP, the “shrunken log2 fold change” value is 0.572.

Consider RRIRHRPPRLPRPRPRPPVAPRP, for which the “shrunken log2 fold change” value is 0.0782.

As for RRIRRRPPRLPRPRPRPTAHPRP, the “shrunken log2 fold change” value is 1.51.

Consider RRIRLRPPRLPRPRPRPPREPRP, for which the “shrunken log2 fold change” value was found to be 0.544.

Take RRIRSRPPRLPRPRPRPQAPPRP: the “shrunken log2 fold change” value is 0.142.

Turning to RRIRNRPPRLPRPRPRPLQKPRP, the “shrunken log2 fold change” value was -0.0108.

As to RRIRYRPPRLPRPRPRPAYYPRP, the “shrunken log2 fold change” value was -0.318.

For RRIRLRPPRLPRPRPRPFVCPRP, the “shrunken log2 fold change” value is -0.0489.

Regarding RRIRYRPPRLPRPRPRPHKCPRP, the “shrunken log2 fold change” value is -0.259.

In the case of RRIRQRPPRLPRPRPRPWGTPRP, the “shrunken log2 fold change” value was -0.239.

With RRIRVRPPRLPRPRPRPVQHPRP, the “shrunken log2 fold change” value was -0.0336.

Take RRIRHRPPRLPRPRPRPVADPRP: the “shrunken log2 fold change” value was -0.209.

As for RRIRHRPPRLPRPRPRPSYDPRP, the “shrunken log2 fold change” value is -0.0244.

In the case of RRIRGRPPRLPRPRPRPQTIPRP, the “shrunken log2 fold change” value was found to be 0.28.

With RRIRWRPPRLPRPRPRPPLIPRP, the “shrunken log2 fold change” value was -0.0843.

As to RRIRRRPPRLPRPRPRPSQEPRP, the “shrunken log2 fold change” value is -0.225.

Turning to RRIRQRPPRLPRPRPRPTKPPRP, the “shrunken log2 fold change” value stood at 0.0859.

For the sequence RRIRLRPPRLPRPRPRPGTQPRP, the “shrunken log2 fold change” value was -0.0907.

With RRIRYRPPRLPRPRPRPHDGPRP, the “shrunken log2 fold change” value was 0.015.

In the case of RRIRDRPPRLPRPRPRPISYPRP, the “shrunken log2 fold change” value is -0.381.

In the case of RRIRDRPPRLPRPRPRPLTVPRP, the “shrunken log2 fold change” value was -0.102.

Regarding RRIRQRPPRLPRPRPRPEWAPRP, the “shrunken log2 fold change” value is 0.0739.

Take RRIRQRPPRLPRPRPRPCRNPRP: the “shrunken log2 fold change” value was -0.0117.

RRIRGRPPRLPRPRPRPHVQPRP: the “shrunken log2 fold change” value worked out at 0.262.

For the sequence RRIRQRPPRLPRPRPRPTLDPRP, the “shrunken log2 fold change” value was 0.476.

As to RRIRGRPPRLPRPRPRPRSLPRP, the “shrunken log2 fold change” value came out at 0.778.

As to RRIRNRPPRLPRPRPRPHIRPRP, the “shrunken log2 fold change” value was -0.0139.

For RRIRARPPRLPRPRPRPYVHPRP, the “shrunken log2 fold change” value was -0.728.

Take RRIRPRPPRLPRPRPRPWKFPRP: the “shrunken log2 fold change” value was -0.0127.

For the sequence RRIRKRPPRLPRPRPRPRPLPRP, the “shrunken log2 fold change” value was 0.73.

Regarding RRIRFRPPRLPRPRPRPKRSPRP, the “shrunken log2 fold change” value was found to be 1.12.

In the case of RRIRGRPPRLPRPRPRPRKSPRP, the “shrunken log2 fold change” value worked out at 0.326.

As for RRIRTRPPRLPRPRPRPTLIPRP, the “shrunken log2 fold change” value is -0.108.

Consider RRIRMRPPRLPRPRPRPTPRPRP, for which the “shrunken log2 fold change” value was determined as 1.46.

With RRIRIRPPRLPRPRPRPNWSPRP, the “shrunken log2 fold change” value was found to be 0.0776.

Turning to RRIRPRPPRLPRPRPRPRLSPRP, the “shrunken log2 fold change” value is 0.306.

Turning to RRIRQRPPRLPRPRPRPCYRPRP, the “shrunken log2 fold change” value is -0.00251.

For the sequence RRIRHRPPRLPRPRPRPFKSPRP, the “shrunken log2 fold change” value was found to be 0.00748.

Take RRIRERPPRLPRPRPRPWRLPRP: the “shrunken log2 fold change” value is -0.00145.

With RRIRPRPPRLPRPRPRPWMFPRP, the “shrunken log2 fold change” value was -0.306.

Take RRIRERPPRLPRPRPRPYRKPRP: the “shrunken log2 fold change” value was -0.264.

Take RRIRDRPPRLPRPRPRPNFNPRP: the “shrunken log2 fold change” value was -0.307.

RRIRERPPRLPRPRPRPTCQPRP: the “shrunken log2 fold change” value worked out at 0.00216.

Turning to RRIRGRPPRLPRPRPRPCFKPRP, the “shrunken log2 fold change” value was determined as 0.00363.

Turning to RRIRLRPPRLPRPRPRPMHIPRP, the “shrunken log2 fold change” value amounted to 0.0952.

Consider RRIRGRPPRLPRPRPRPWHFPRP, for which the “shrunken log2 fold change” value is -0.0456.

As to RRIRDRPPRLPRPRPRPYLVPRP, the “shrunken log2 fold change” value was -0.506.

Take RRIRTRPPRLPRPRPRPLNFPRP: the “shrunken log2 fold change” value is -0.446.

On to RRIRPRPPRLPRPRPRPNFRPRP, for which the “shrunken log2 fold change” value is 0.156.

Consider RRIRYRPPRLPRPRPRPTQRPRP, for which the “shrunken log2 fold change” value was -0.164.

Turning to RRIRMRPPRLPRPRPRPPMPPRP, the “shrunken log2 fold change” value amounted to 0.703.

With RRIRCRPPRLPRPRPRPSAFPRP, the “shrunken log2 fold change” value is 0.426.

RRIRGRPPRLPRPRPRPDTIPRP: the “shrunken log2 fold change” value turned out to be 0.0799.

Regarding RRIRWRPPRLPRPRPRPSQDPRP, the “shrunken log2 fold change” value is 0.22.

RRIRYRPPRLPRPRPRPMLMPRP: the “shrunken log2 fold change” value was -0.13.

In the case of RRIRCRPPRLPRPRPRPDINPRP, the “shrunken log2 fold change” value is -0.294.

Regarding RRIRTRPPRLPRPRPRPMGLPRP, the “shrunken log2 fold change” value stood at 0.12.

For RRIRDRPPRLPRPRPRPETAPRP, the “shrunken log2 fold change” value is 1.15.

RRIRERPPRLPRPRPRPKDRPRP: the “shrunken log2 fold change” value was -0.094.

Regarding RRIRVRPPRLPRPRPRPTSPPRP, the “shrunken log2 fold change” value was 0.0262.

As to RRIRRRPPRLPRPRPRPGVAPRP, the “shrunken log2 fold change” value was 0.858.

Take RRIRCRPPRLPRPRPRPPSPPRP: the “shrunken log2 fold change” value came out at 0.724.

As for RRIRDRPPRLPRPRPRPIHQPRP, the “shrunken log2 fold change” value is -0.241.

For RRIRQRPPRLPRPRPRPWNYPRP, the “shrunken log2 fold change” value is -0.201.

For RRIRARPPRLPRPRPRPGWSPRP, the “shrunken log2 fold change” value was 0.57.

Take RRIRSRPPRLPRPRPRPHYCPRP: the “shrunken log2 fold change” value was -0.289.

For RRIRPRPPRLPRPRPRPIPGPRP, the “shrunken log2 fold change” value was determined as 0.0171.

As for RRIRNRPPRLPRPRPRPPCRPRP, the “shrunken log2 fold change” value is -0.0266.

In the case of RRIRARPPRLPRPRPRPKGCPRP, the “shrunken log2 fold change” value worked out at 1.4.

On to RRIRHRPPRLPRPRPRPECHPRP, for which the “shrunken log2 fold change” value was -0.303.

Turning to RRIRTRPPRLPRPRPRPTCSPRP, the “shrunken log2 fold change” value was 0.00373.

Take RRIRMRPPRLPRPRPRPIVCPRP: the “shrunken log2 fold change” value is -0.0438.

For the sequence RRIRVRPPRLPRPRPRPIQIPRP, the “shrunken log2 fold change” value was -1.33.

Regarding RRIRTRPPRLPRPRPRPMHMPRP, the “shrunken log2 fold change” value is -0.202.

As to RRIRGRPPRLPRPRPRPRAIPRP, the “shrunken log2 fold change” value is 0.733.

As for RRIRLRPPRLPRPRPRPDVNPRP, the “shrunken log2 fold change” value is -0.137.

Regarding RRIRRRPPRLPRPRPRPHPNPRP, the “shrunken log2 fold change” value turned out to be 0.246.

As for RRIRYRPPRLPRPRPRPAVEPRP, the “shrunken log2 fold change” value amounted to 0.161.

On to RRIRDRPPRLPRPRPRPKCQPRP, for which the “shrunken log2 fold change” value is -0.00187.

On to RRIRQRPPRLPRPRPRPYHQPRP, for which the “shrunken log2 fold change” value is -0.631.

Consider RRIRPRPPRLPRPRPRPDNKPRP, for which the “shrunken log2 fold change” value is -0.778.

On to RRIRARPPRLPRPRPRPQIAPRP, for which the “shrunken log2 fold change” value was found to be 0.499.

On to RRIRYRPPRLPRPRPRPCMTPRP, for which the “shrunken log2 fold change” value is -0.34.

RRIRLRPPRLPRPRPRPVFWPRP: the “shrunken log2 fold change” value worked out at 0.247.

For the sequence RRIRNRPPRLPRPRPRPQTSPRP, the “shrunken log2 fold change” value is -0.346.

Turning to RRIRTRPPRLPRPRPRPSVWPRP, the “shrunken log2 fold change” value came out at 0.172.

Take RRIRMRPPRLPRPRPRPTNTPRP: the “shrunken log2 fold change” value was 0.176.

On to RRIRMRPPRLPRPRPRPWRGPRP, for which the “shrunken log2 fold change” value was 0.497.

Take RRIRYRPPRLPRPRPRPEGAPRP: the “shrunken log2 fold change” value came out at 0.295.

Take RRIRWRPPRLPRPRPRPNYWPRP: the “shrunken log2 fold change” value worked out at 1.21.

For the sequence RRIRVRPPRLPRPRPRPRTIPRP, the “shrunken log2 fold change” value is -0.0961.

On to RRIRVRPPRLPRPRPRPASIPRP, for which the “shrunken log2 fold change” value is -0.437.

With RRIRFRPPRLPRPRPRPNIGPRP, the “shrunken log2 fold change” value is -0.0107.

With RRIRYRPPRLPRPRPRPGVQPRP, the “shrunken log2 fold change” value was 0.0651.

RRIRNRPPRLPRPRPRPSGFPRP: the “shrunken log2 fold change” value came out at 0.0185.

Turning to RRIRPRPPRLPRPRPRPLATPRP, the “shrunken log2 fold change” value came to 0.605.

With RRIRKRPPRLPRPRPRPVVCPRP, the “shrunken log2 fold change” value was found to be 0.126.

RRIRKRPPRLPRPRPRPDLSPRP: the “shrunken log2 fold change” value is -0.0341.

Turning to RRIRTRPPRLPRPRPRPQWVPRP, the “shrunken log2 fold change” value stood at 0.143.

For RRIRERPPRLPRPRPRPLFWPRP, the “shrunken log2 fold change” value is 0.219.

Regarding RRIRERPPRLPRPRPRPHRGPRP, the “shrunken log2 fold change” value was found to be 0.0526.

As to RRIRHRPPRLPRPRPRPHKKPRP, the “shrunken log2 fold change” value is -0.0741.

Take RRIRTRPPRLPRPRPRPCHMPRP: the “shrunken log2 fold change” value is -0.0872.

Regarding RRIRPRPPRLPRPRPRPCVEPRP, the “shrunken log2 fold change” value amounted to 0.021.

RRIRERPPRLPRPRPRPTKVPRP: the “shrunken log2 fold change” value was found to be 0.0356.

Regarding RRIRERPPRLPRPRPRPAIIPRP, the “shrunken log2 fold change” value is -0.259.

Take RRIRVRPPRLPRPRPRPNIRPRP: the “shrunken log2 fold change” value was -0.664.

For RRIRGRPPRLPRPRPRPNYPPRP, the “shrunken log2 fold change” value worked out at 0.0611.

For RRIRTRPPRLPRPRPRPAELPRP, the “shrunken log2 fold change” value is 0.112.

Turning to RRIRRRPPRLPRPRPRPRHFPRP, the “shrunken log2 fold change” value is -0.156.

RRIRHRPPRLPRPRPRPEEPPRP: the “shrunken log2 fold change” value was 0.0179.
